Our source for the Kd values is paper PMC6459835, “The RNA binding activity of the first identified trypanosome protein with Z-DNA-binding domains”.

As a reminder, the Kd is the free concentration of one partner at which half of the binding sites on the other are occupied at equilibrium, for simple one-to-one binding.

Common to all, as to assay: EMSA
Details in all cases: RBB50: 20 mM Tris-HCl pH 7.6, 50 mM KCl, 5 mM MgCl2, 100 mg/mL BSA (so in the source), 10% glycerol, 1 mM DTT, plus 100 mM KCl and 20 U RNasin; 20 ul, 30 min, RT …
A general note: Mobility shift assays separate free from complexed probe on a gel.

For data set [1], the system named is RBP7910 F167A (Trypanosoma brucei).
For data set [2], the system named is RBP7910 P164A (Trypanosoma brucei).
Data set [3] relates to RBP7910 P76A (Trypanosoma brucei).
Data set [4] concerns RBP7910 P77A (Trypanosoma brucei).
Data set [5] deals with RBP7910 R53A (Trypanosoma brucei).
For data set [6], the system named is RBP7910 T52A (Trypanosoma brucei).
Data set [7] relates to RBP7910 W188A (Trypanosoma brucei).
Data set [8] deals with RBP7910 W56A (Trypanosoma brucei).
For data set [9], the system named is RBP7910 W79A (Trypanosoma brucei).

Consider gA6[14] (delta16G) gRNA with U-tail, for which the Kd in data set [1] was 0.3 nM; in data set [2] it was 0.27 nM; in data set [3] it was 0.18 nM; in data set [4], 0.3 nM; in data set [5] it was 0.81 nM; in data set [6] it was 0.61 nM. For the same substance, the Kd in data set [7] was found to be 0.55 nM; in [8] it was 0.37 nM; in [9] it was 0.32 nM.
